Assay results reported in patent US20260258465, “NUCLEIC ACID-GUIDED DNA SYNTHESIS” (The Trustees of Columbia University in the City of New York, published 2026).

Molecular target: T1, KpnDRT2 reverse transcriptase (Klebsiella pneumoniae)
T1 chain: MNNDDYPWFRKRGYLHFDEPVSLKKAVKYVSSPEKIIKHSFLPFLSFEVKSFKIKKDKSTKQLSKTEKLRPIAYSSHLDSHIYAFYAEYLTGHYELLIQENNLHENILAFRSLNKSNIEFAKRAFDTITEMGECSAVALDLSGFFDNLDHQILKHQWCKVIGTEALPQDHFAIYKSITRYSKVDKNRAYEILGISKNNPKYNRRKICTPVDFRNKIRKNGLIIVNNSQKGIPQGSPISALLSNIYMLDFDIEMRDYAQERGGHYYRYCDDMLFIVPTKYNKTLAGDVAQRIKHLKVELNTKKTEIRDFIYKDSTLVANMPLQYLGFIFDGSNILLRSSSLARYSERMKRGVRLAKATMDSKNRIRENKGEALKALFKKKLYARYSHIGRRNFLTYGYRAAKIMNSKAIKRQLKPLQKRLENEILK
Assay: EMSA; 20 mM HEPES pH 7.5, 5 mM MgCl2, 200 mM NaCl, 37 C
Settings: tags: N-terminal His6-GST removed by TEV; C-terminal StrepII; stem-loops SL1-SL8
Method: To test binding of the ncRNA by the RT, the purified ncRNA was mixed with increasing amounts of the RT in reaction buffer (20 mM HEPES pH 7.5, 5 mM MgCl₂, 5% glycerol, 200 mM NaCl, and 1 mM DTT). Samples were incubated at 37° C. for 15 minutes and analyzed by electrophoretic mobility shift assay (EMSA). The shift in mobility at higher concentrations of RT enzyme indicates binding of the ncRNA by the RT (FIG. 14A).

B1: KpnDRT2 ncRNA WT (ssRNA)
RNA: GCCCUAAACAAAGGUUUAGGGGUAUUGUACAGGUUGUCAAGCCUCCCACAGGUCUUGGUGAAACCAAUCACUGUGACGACGGUAAGCAACACUUGGAUGAUAUUCAUAAUUGACUCCACGCUACUGAUUACAUUAUACAGCAUAUCUAACAUUUGCGGCGAGGUUCACAAUUUGUAUUUAGGUACUGAUUGUGGAUGAGAAGGUUGGAGAAAGACCACUUGGUUAAGCCGGAGGAUGUGUCCUAGAAUUGUCGCUAUUCUGUCAUCCUCCGGUUUUGCUAA
binding result: binds
